Consider three molecules from paper PMC10397247.

What all share (assay): two-hybrid library CCNG1;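 further: natural log of median RNA to DNA barcode read ratio; higher means stronger binding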
One experiment deals with T1, 4H2518-bA.
T1 chain: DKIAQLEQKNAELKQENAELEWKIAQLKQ

The next experiment concerns the target T2, 4H2585-bA.
T2 chain: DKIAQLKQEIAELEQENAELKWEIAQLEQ

Another experiment deals with T3, 4H2859-bA.
T3 chain: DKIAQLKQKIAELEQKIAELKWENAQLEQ

The next experiment concerns the target T4, 4H454-bA.
T4 chain: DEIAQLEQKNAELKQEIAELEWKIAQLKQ

In the next experiment the target is T5, 4H56-bA.
T5 chain: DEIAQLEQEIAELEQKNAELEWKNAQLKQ

Another experiment concerns the target T6, 4H949-bA.
T6 chain: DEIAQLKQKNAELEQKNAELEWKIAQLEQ

A further experiment has as its target T7, 4H2760-bA.
T7 chain: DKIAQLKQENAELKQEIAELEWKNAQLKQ

The target of a further experiment is T8, 4H2931-bA.
T8 chain: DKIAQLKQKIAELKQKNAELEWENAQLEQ

The next experiment addresses T9, 4H730-bA.
T9 chain: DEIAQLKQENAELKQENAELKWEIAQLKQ

Another experiment concerns the target T10, 4H3297-bA.
T10 chain: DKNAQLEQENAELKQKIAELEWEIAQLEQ

The target in a further experiment is T11, 4H3041-bA.
T11 chain: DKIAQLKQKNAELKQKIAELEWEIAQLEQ

In the next experiment the target is T12, 4H575-bH.
T12 chain: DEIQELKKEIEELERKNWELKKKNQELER

The next experiment deals with T13, 4H3364-bA.
T13 chain: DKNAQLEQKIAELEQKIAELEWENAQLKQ

In another experiment the target is T14, 4H264-bA.
T14 chain: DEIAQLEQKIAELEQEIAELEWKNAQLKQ

Another experiment concerns the target T15, 4H2444-bA.
T15 chain: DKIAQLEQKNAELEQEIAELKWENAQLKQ

For another experiment, the target named is T16, 4H349-bA.
T16 chain: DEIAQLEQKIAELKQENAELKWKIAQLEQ

The target in a further experiment is T17, 4H796-bA.
T17 chain: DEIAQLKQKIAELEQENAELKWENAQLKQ

For another experiment, the target named is T18, 4H3381-bA.
T18 chain: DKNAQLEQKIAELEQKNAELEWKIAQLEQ

For another experiment, the target named is T19, 4H331-bA.
T19 chain: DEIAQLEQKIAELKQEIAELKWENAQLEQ

The target of another experiment is T20, 4H932-bA.
T20 chain: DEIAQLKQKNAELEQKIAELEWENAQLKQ

A further experiment has as its target T21, 4H235-bA.
T21 chain: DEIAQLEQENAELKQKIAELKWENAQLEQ

The next experiment has as its target T22, 4H40-bH.
T22 chain: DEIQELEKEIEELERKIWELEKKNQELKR

The target in another experiment is T23, 4H477-bH.
T23 chain: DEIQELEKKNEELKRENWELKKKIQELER

For a further experiment, the target named is T24, 4H319-bH.
T24 chain: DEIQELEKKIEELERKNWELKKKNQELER

In another experiment the target is T25, 4H2717-bH.
T25 chain: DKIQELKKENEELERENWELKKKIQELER

The next experiment has as its target T26, 4H2692-bH.
T26 chain: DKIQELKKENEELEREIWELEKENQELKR

In another experiment the target is T27, 4H2588-bH.
T27 chain: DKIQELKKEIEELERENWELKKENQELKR

The next experiment addresses T28, 4H3277-bH.
T28 chain: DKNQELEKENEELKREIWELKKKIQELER

For the next experiment, the target named is T29, 4H338-bA.
T29 chain: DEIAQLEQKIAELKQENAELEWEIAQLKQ

A further experiment has as its target T30, 4H2915-bH.
T30 chain: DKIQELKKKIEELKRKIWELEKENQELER

In another experiment the target is T31, 4H3057-bH.
T31 chain: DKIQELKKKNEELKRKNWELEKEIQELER

The target of another experiment is T32, 4H741-bH.
T32 chain: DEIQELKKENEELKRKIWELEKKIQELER

Another experiment has as its target T33, P7SH.
T33 chain: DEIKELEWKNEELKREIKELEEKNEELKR

In another experiment the target is T34, 4H2839-bH.
T34 chain: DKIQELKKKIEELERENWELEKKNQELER

Another experiment addresses T35, 4H492-bH.
T35 chain: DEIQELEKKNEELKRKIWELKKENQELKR

The target of another experiment is T36, P8SH.
T36 chain: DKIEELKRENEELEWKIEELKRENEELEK

DEIAQLEQENAELKQKIAELKWENAQLEQ [4H235-bA]: the interaction score is -0.69 with 4H2518-bA; -0.367 with 4H2585-bA; -0.319 in the experiment with 4H2859-bA; 0.0882 in the experiment with 4H454-bA; -1.05 with 4H56-bA; -0.885 with 4H949-bA. Moreover, the interaction score in the experiment with 4H2760-bA was 1.96; with 4H2931-bA it was -0.643; with 4H730-bA, -0.952; with 4H3297-bA, -0.354; with 4H3041-bA, 0.563; with 4H575-bH, -3.02. Also, the interaction score in the experiment with 4H3364-bA was -0.845; in the experiment with 4H264-bA, -0.636; with 4H2444-bA it was -0.488; in the experiment with 4H349-bA, -0.682; with 4H796-bA it was -0.862; with 4H3381-bA, -0.985. The interaction score with 4H331-bA is -2; with 4H932-bA, -0.974; with 4H235-bA, 0.082.
For DKIQELKKEIEELERENWELKKENQELKR [4H2588-bH], the interaction score in the experiment with 4H40-bH is -0.884; in the experiment with 4H477-bH, -0.292; with 4H319-bH, 0.617; with 4H2717-bH, -0.116; in the experiment with 4H2692-bH, 0.605; with 4H2588-bH, 0.98. Moreover, the interaction score is -0.69 in the experiment with 4H3277-bH; 0.393 with 4H338-bA; 1.07 with 4H2915-bH; 0.192 with 4H3057-bH; 0.417 with 4H741-bH; -0.241 with P7SH. Besides, the values for the interaction score in the experiment with 4H2839-bH and in the experiment with 4H492-bH were 1.07 and -1.5, respectively.
Regarding DEIKELEWKNEELKREIKELEEKNEELKR [P7SH], the figures for the interaction score with P8SH and with P7SH were 2.08 and -0.227, respectively.
